Data as given in patent publication US20200283532A1 (CANCER RESEARCH TECHNOLOGY, published 2020).

What was measured:
Assay in all cases: flow cytometry, A375Ppuro cells
[1] = biological target: Peptide (23) DTPA-GNK(Biotin)…-OH
[2] = biological target: Peptide (22) DTPA-NK(Biotin)…-OH
[3] = biological target: Peptide (18) AcHN-NK(Biotin)…-NH2
[4] = biological target: Peptide (26) DTPA-nK(Biotin)…t-OH
[5] = biological target: Peptide (25) DTPA-nK(Biotin)…-OH
[6] = biological target: Peptide (16) AcHN-NK(Biotin)…-OH
[7] = biological target: Peptide (24) DTPA-NK(Biotin)…-NH2

Measured: binding result

B1: integrin αvβ5 (receptor)
chain 1: FNLDVDSPAEYSGPEGSYFGFAVDFFVPSASSRMFLLVGAPKANTTQPGIVEGGQVLKCDWSSTRRCQPIEFDATGNRDYAKDDPLEFKSHQWFGASVRSKQDKILACAPLYHWRTEMKQEREPVGTCFLQDGTKTVEYAPCRSQDIDADGQGFCQGGFSIDFTKADRVLLGGPGSFYWQGQLISDQVAEIVSKYDPNVYSIKYNNQLATRTAQAIFDDSYLGYSVAVGDFNGDGIDDFVSGVPRAARTLGMVYIYDGKNMSSLYNFTGEQMAAYFGFSVAATDINGDDYADVFIGAPLFMDRGSDGKLQEVGQVSVSLQRASGDFQTTKLNGFEVFARFGSAIAPLGDLDQDGFNDIAIAAPYGGEDKKGIVYIFNGRSTGLNAVPSQILEGQWAARSMPPSFGYSMKGATDIDKNGYPDLIVGAFGVDRAILYRARPVITVNAGLEVYPSILNQDNKTCSLPGTALKVSCFNVRFCLKADGKGVLPRKLNFQVELLLDKLKQKGAIRRALFLYSRSPSHSKNMTISRGGLMQCEELIAYLRDESEFRDKLTPITIFMEYRLDYRTAADTTGLQPILNQFTPANISRQAHILLDCGEDNVCKPKLEVSVDSDQKKIYIGDDNPLTLIVKAQNQGEGAYEAELIVSIPLQADFIGVVRNNEALARLSCAFKTENQTRQVVCDLGNPMKAGTQLLAGLRFSVHQQSEMDTSVKFDLQIQSSNLFDKVSPVVSHKVDLAVLAAVEIRGVSSPDHVFLPIPNWEHKENPETEEDVGPVVQHIYELRNNGPSSFSKAMLHLQWPYKYNNNTLLYILHYDIDGPMNCTSDMEINPLRIKISSLQTTEKNDTVAGQGERDHLITKRDLALSEGDIHTLGCGVAQCLKIVCQVGRLDRGKSAILYVKSLLWTETFMNKENQNHSYSLKSSASFNVIEFPYKNLPIEDITNSTLVTTNVTWGIQPAPMPVPVWVIILAVLAGLLLLAVLVFVMYRMGFFKRVRPPQEEQEREQLQPHENGEGNSET
chain 2: GLNICTSGSATSCEECLLIHPKCAWCSKEDFGSPRSITSRCDLRANLVKNGCGGEIESPASSFHVLRSLPLSSKGSGSAGWDVIQMTPQEIAVNLRPGDKTTFQLQVRQVEDYPVDLYYLMDLSLSMKDDLDNIRSLGTKLAEEMRKLTSNFRLGFGSFVDKDISPFSYTAPRYQTNPCIGYKLFPNCVPSFGFRHLLPLTDRVDSFNEEVRKQRVSRNRDAPEGGFDAVLQAAVCKEKIGWRKDALHLLVFTTDDVPHIALDGKLGGLVQPHDGQCHLNEANEYTASNQMDYPSLALLGEKLAENNINLIFAVTKNHYMLYKNFTALIPGTTVEILDGDSKNIIQLIINAYNSIRSKVELSVWDQPEDLNLFFTATCQDGVSYPGQRKCEGLKIGDTASFEVSLEARSCPSRHTEHVFALRPVGFRDSLEVGVTYNCTCGCSVGLEPNSARCNGSGTYVCGLCECSPGYLGTRCECQDGENQSVYQNLCREAEGKPLCSGRGDCSCNQCSCFESEFGKIYGPFCECDNFSCARNKGVLCSGHGECHCGECKCHAGYIGDNCNCSTDISTCRGRDGQICSERGHCLCGQCQCTEPGAFGEMCEKCPTCPDACSTKRDCVECLLLHSGKPDNQTCHSLCRDEVITWVDTIVKDDQEAVLCFYKTAKDCVMMFTYVELPSGKSNLTVLREPECGNTPNAMTILLAVVGSILLVGLALLAIWKLLVTIHDRREFAKFQSERSRARYEMASNPLYRKPISTHTVDFTFNKFNKSYNGTVD
notes: whole, on cells
no binding (tested: 1000 nM): all assays above

B2: integrin αvβ8 (receptor)
chain 1: FNLDVDSPAEYSGPEGSYFGFAVDFFVPSASSRMFLLVGAPKANTTQPGIVEGGQVLKCDWSSTRRCQPIEFDATGNRDYAKDDPLEFKSHQWFGASVRSKQDKILACAPLYHWRTEMKQEREPVGTCFLQDGTKTVEYAPCRSQDIDADGQGFCQGGFSIDFTKADRVLLGGPGSFYWQGQLISDQVAEIVSKYDPNVYSIKYNNQLATRTAQAIFDDSYLGYSVAVGDFNGDGIDDFVSGVPRAARTLGMVYIYDGKNMSSLYNFTGEQMAAYFGFSVAATDINGDDYADVFIGAPLFMDRGSDGKLQEVGQVSVSLQRASGDFQTTKLNGFEVFARFGSAIAPLGDLDQDGFNDIAIAAPYGGEDKKGIVYIFNGRSTGLNAVPSQILEGQWAARSMPPSFGYSMKGATDIDKNGYPDLIVGAFGVDRAILYRARPVITVNAGLEVYPSILNQDNKTCSLPGTALKVSCFNVRFCLKADGKGVLPRKLNFQVELLLDKLKQKGAIRRALFLYSRSPSHSKNMTISRGGLMQCEELIAYLRDESEFRDKLTPITIFMEYRLDYRTAADTTGLQPILNQFTPANISRQAHILLDCGEDNVCKPKLEVSVDSDQKKIYIGDDNPLTLIVKAQNQGEGAYEAELIVSIPLQADFIGVVRNNEALARLSCAFKTENQTRQVVCDLGNPMKAGTQLLAGLRFSVHQQSEMDTSVKFDLQIQSSNLFDKVSPVVSHKVDLAVLAAVEIRGVSSPDHVFLPIPNWEHKENPETEEDVGPVVQHIYELRNNGPSSFSKAMLHLQWPYKYNNNTLLYILHYDIDGPMNCTSDMEINPLRIKISSLQTTEKNDTVAGQGERDHLITKRDLALSEGDIHTLGCGVAQCLKIVCQVGRLDRGKSAILYVKSLLWTETFMNKENQNHSYSLKSSASFNVIEFPYKNLPIEDITNSTLVTTNVTWGIQPAPMPVPVWVIILAVLAGLLLLAVLVFVMYRMGFFKRVRPPQEEQEREQLQPHENGEGNSET
chain 2: EDNRCASSNAASCARCLALGPECGWCVQEDFISGGSRSERCDIVSNLISKGCSVDSIEYPSVHVIIPTENEINTQVTPGEVSIQLRPGAEANFMLKVHPLKKYPVDLYYLVDVSASMHNNIEKLNSVGNDLSRKMAFFSRDFRLGFGSYVDKTVSPYISIHPERIHNQCSDYNLDCMPPHGYIHVLSLTENITEFEKAVHRQKISGNIDTPEGGFDAMLQAAVCESHIGWRKEAKRLLLVMTDQTSHLALDSKLAGIVVPNDGNCHLKNNVYVKSTTMEHPSLGQLSEKLIDNNINVIFAVQGKQFHWYKDLLPLLPGTIAGEIESKAANLNNLVVEAYQKLISEVKVQVENQVQGIYFNITAICPDGSRKPGMEGCRNVTSNDEVLFNVTVTMKKCDVTGGKNYAIIKPIGFNETAKIHIHRNCSCQCEDNRGPKGKCVDETFLDSKCFQCDENKCHFDEDQFSSESCKSHKDQPVCSGRGVCVCGKCSCHKIKLGKVYGKYCEKDDFSCPYHHGNLCAGHGECEAGRCQCFSGWEGDRCQCPSAAAQHCVNSKGQVCSGRGTCVCGRCECTDPRSIGRFCEHCPTCYTACKENWNCMQCLHPHNLSQAILDQCKTSCALMEQQHYVDQTSECFSSPSYLRIFFIIFIVTFLIGLLKVLIIRQVILQWNSNKIKSSSDYRVSASKKDKLILQSVCTRAVTYRREKPEEIKMDISKLNAHETFRCNF
notes: whole, on cells
no binding (tested: 1000 nM): all assays above
